Measured values taken from patent US20180155415A1 (published 2018).

Experiments:
[1] = target: T1, mouse NGF (m-NGF, Alomone) (mouse, UniProt P01139 122-241); test: SPR (BIAcore 2000), antibody immobilized by amine coupling, m-NGF injected
T1 construct: mature
Description: For m-NGF binding, the immobilization of the antibody was of 3000 resonance units (RU) in the experiment of panel A and of 6000 RU in the experiment of panel B. The injected concentrations of the m-NGF are indicated on top of each curve.
(§1) Experiments were performed on CMS5 chips with amine coupling, using a BIAcore 2000 machine. Coupling was performed with a specific kit purchased at BIAcore and the coupling reaction was carried out according to manufacturer's instructions.
(§2) Anti-NGF antibodies were immobilized on chip, while mouse NGF (m-NGF, Alomone) or recombinant mouse proNGF (rm-proNGF) were injected at decreasing concentrations to obtain binding curves.

[2] = target: T2, recombinant mouse proNGF (rm-proNGF) (mouse, UniProt P01139 19-241); test: SPR (BIAcore 2000), antibody immobilized (3000 RU), rm-proNGF injected, kinetic analysis
T2 construct: Pro-form of NGF
Description: For rm-proNGF binding (panel C), the immobilization of the antibody was of 3000 RU.
as §1, §2

T2 sequence (P01139 19-241): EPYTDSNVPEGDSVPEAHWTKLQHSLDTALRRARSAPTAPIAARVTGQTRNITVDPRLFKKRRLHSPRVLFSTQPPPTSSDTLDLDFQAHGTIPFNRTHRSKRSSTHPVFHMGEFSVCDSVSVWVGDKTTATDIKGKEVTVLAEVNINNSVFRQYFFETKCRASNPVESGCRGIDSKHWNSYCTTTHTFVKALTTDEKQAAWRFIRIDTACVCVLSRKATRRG
T1 sequence (P01139 122-241): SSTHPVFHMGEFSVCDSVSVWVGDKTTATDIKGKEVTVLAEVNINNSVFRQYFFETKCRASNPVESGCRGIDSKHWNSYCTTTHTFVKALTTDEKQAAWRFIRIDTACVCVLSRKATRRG

B1: αD11 anti-NGF antibody (antibody, V domains shown)
VH: QVQLKESGPGLVQPSQTLSLTCTVSGFSLTNNNVNWVRQATGRGLEWMGGVWAGGATDYNSALKSRLTITRDTSKSQVFLKMHSLQSEDTATYYCARDGGYSSSTLYAMDAWGQGTTVTVSA
VL: DIQMTQSPASLSASLGETVTIECRASEDIYNALAWYQQKPGKSPQLLIYNTDTLHTGVPSRFSGSGSGTQYSLKINSLQSEDVASYFCQHYFHYPRTFGGGTKLELK
notes: Rat monoclonal antibody purified from hybridoma supernatant and immobilized on the chip; The tie to αD11 is indirect; also called alphaD11; aD11
Ka [1]: 3.55e+11 M⁻¹ | Kd [1]: 0.00281 nM | Ka [2]: 1.2e+09 M⁻¹ | Kd [2]: 1.9 nM
